Paper PMC3155659

Biological target: amyloid precursor protein (APP), endogenous mouse (mouse (endogenous in mouse brain and primary neurons))
Test: co-IP

decrease in APP-Dab1 co-precipitation against control, 20 min of Reelin: 89 % decrease
decrease in APP-Dab1 co-precipitation against control, 1 hr of Reelin: 87 % decrease
decrease in APP-Dab1 co-precipitation against control, 4 hrs of Reelin: 67 % decrease
B1: Disabled1 (Dab1), endogenous mouse (natural protein)
chain: MSTETELQVAVKTSAKKDSRKKGQDRSEATLIKRFKGEGVRYKAKLIGIDEVSAARGDKLCQDSMMKLKGVVAGARSKGEHKQKIFLTISFGGIKIFDEKTGALQHHHAVHEISYIAKDITDHRAFGYVCGKEGNHRFVAIKTAQAAEPVILDLRDLFQLIYELKQREELEKKAQKDKQCEQAVYQTILEEDVEDPVYQYIVFEAGHEPIRDPETEENIYQVPTSQKKEGVYDVPKSQPNSQPLEDFESRFAAATPNRNLSMDFDELLEATKVSAVTQLELFGDMSTPPDITSPPTPATPGDAFLPSSSQTLPGSADVFGSMSFGTAAVPSGYVAMGAVLPSFWGQQPLVQQQIAMGAQPPVAQVIPGAQPIAWGQPGLFPATQQAWPTVAGQFPPAAFMPTQTVMPLAAAMFQGPLTPLATVPGTNDSARSSPQSDKPRQKMGKESFKDFQMVQPPPVPSRKPDQPSLTCTSEAFSSYFNKVGVAQDTDDCDDFDISQLNLTPVTSTTPSTNSPPTPAPRQSSPSKSSASHVSDPTADDIFEEGFESPSKSEEQEAPDGSQASSTSDPFGEPSGEPSGDNISPQDGS
